Data on one protein can be found in patent US20210062216.

The target in this data set is T1, Myc:SlRin4-3 (pGWB518, N-terminal Myc tag).
T1 chain: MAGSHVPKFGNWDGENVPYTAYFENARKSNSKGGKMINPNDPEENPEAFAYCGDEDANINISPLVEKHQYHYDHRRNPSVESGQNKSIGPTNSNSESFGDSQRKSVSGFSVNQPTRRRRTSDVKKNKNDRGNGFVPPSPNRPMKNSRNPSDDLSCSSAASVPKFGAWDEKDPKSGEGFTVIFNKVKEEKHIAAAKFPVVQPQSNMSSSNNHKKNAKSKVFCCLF

B1: AvrRpt2:Myc (avrRpt2 of Pseudomonas syringae pv. tomato NY15125 in pGWB417, C-terminal Myc tag) (protein)
chain: MKIAPVAINHSPLSREVPSHAAPTQAKQTNLQSEAGDLDARKSSASSPETRALLATKTVLGRHKIEVPAFGGWFKKKSSKHETGGSSANADSSSVASDSTEKPLFRLTHVPYVSQGNERMGCWYACARMVGHSVEAGPRLGLPELYEGREGPAGLQDFSDVERFIHNEGLTRVDLPDNERFTHEELGALLYKHGPIIFGWKTPNDSWHMSVLTGVDKETSSITFHDPRQGPDLAMPLDYFNQRLAWQVPHAMLYR
B1: the “abundance of Rin4 protein, c-Myc immunoblot of N. benthamiana leaves 28 hr after agroinfiltration” value is listed as “a decrease in the abundance of Rin4 protein”.
